Holding throughout (settings): other: PEP varied; pH 7.0
Substrate in data set [1]: C=C(OP(=O)(O)O)C(=O)O
The experiment in a line: EPSPS substrate saturation kinetics, maize variant 103V 107G. Format: biochemical, Zea mays. On the procedure: (§1) EPSPS activity was determined by quantifying the phosphate generated from the EPSPS reaction. Release of inorganic phosphate was coupled to reaction with 2-amino-6-mercapto-7-methylpurine ribonucleoside, catalyzed by purine-nucleoside phosphorylase (M R Webb, Proc. Natl. Acad. Sci. 89:4884-4887, 1992). The absorbance change that occurs was monitored at 360 nm, where the extinction is 11,200 M^−1 cm^−1, with a Spectramax plate reader (Molecular Devices). To determine kinetic parameters, the varied substrate was present at seven concentrations (the eighth being the blank, containing no substrate) ranging from 4 to 400 uM and the unvaried substrate present at saturation. […] Reactions were monitored with a Spectramax plate reader. […] KI was then calculated from the following form of the Michaelis-Menten equation for competitive inhibition: KI=KM[I]/(KM app−KM) KM approximates the dissociation constant of the enzyme-substrate complex while kcat is the rate of conversion of substrate to product when the substrate concentration is saturating. kcat/KM is a widely accepted parameter for catalytic efficiency when substrate concentration is low (˜KM). […] The parameter kcat/KM×KI is used to quantify both catalytic efficiency and insensitivity and thus the overall fitness of the enzyme. […]

Substrate in data set [2]: C=C(OP(=O)(O)O)C(=O)O
The experiment in a line: EPSPS substrate saturation kinetics, maize variant 103L 107A. Format: biochemical, Zea mays. On the procedure: as §1

Substrate in data set [3]: C=C(OP(=O)(O)O)C(=O)O
Briefly: EPSPS substrate saturation kinetics, maize variant 103G 107W (EPSPS-TGPW). The class given is biochemical. On the procedure:
as §1

Substrate in data set [4]: C=C(OP(=O)(O)O)C(=O)O
The experiment in a line: EPSPS substrate saturation kinetics, maize variant 103L 107T. Format: biochemical, Zea mays. As for the experimental part:
as §1

Substrate in data set [5]: C=C(OP(=O)(O)O)C(=O)O
Briefly: EPSPS substrate saturation kinetics, maize variant 103S 107N. Format: biochemical, Zea mays. As for the experimental part: as §1

The results in this text go back to patent publication US11549123B2, “Plant EPSP synthases and methods of use” (PIONEER HI-BRED INTERNATIONAL, INC., priority 2015, dated 2023).

The term Km denotes the substrate concentration at which the rate is half of its maximum.

B1: Zea mays EPSPS variant V-G at positions 103-107 (Zea mays; P106G/T102V) (protein)
chain: MAGAEEIVLQPIKEISGTVKLPGSKSLSNRILLLAALSEGTTVVDNLLNSEDVHYMLGALRTLGLSVEADKAAKRAVVVGCGGKFPVEDAKEEVQLFLGNAGVAMRGLTAAVTAAGGNATYVLDGVPRMRERPIGDLVVGLKQLGADVDCFLGTDCPPVRVNGIGGLPGGKVKLSGSISSQYLSALLMAAPLALGDVEIEIIDKLISIPYVEMTLRLMERFGVKAEHSDSWDRFYIKGGQKYKSPKNAYVEGDASSASYFLAGAAITGGTVTVEGCGTTSLQGDVKFAEVLEMMGAKVTWTETSVTVTGPPREPFGRKHLKAIDVNMNKMPDVAMTLAVVALFADGPTAIRDVASWRVKETERMVAIRTELTKLGASVEEGPDYCIITPPEKLNVTAIDTYDDHRMAMAFSLAACAEVPVTIRDPGCTRKTFPDYFDVLSTFVKN
In the case of B1, in data set [1], the Km amounted to 133 µM.

B2: Zea mays EPSPS variant L-A at positions 103-107 (Zea mays; P106A/T102L) (protein)
chain: MAGAEEIVLQPIKEISGTVKLPGSKSLSNRILLLAALSEGTTVVDNLLNSEDVHYMLGALRTLGLSVEADKAAKRAVVVGCGGKFPVEDAKEEVQLFLGNAGLAMRALTAAVTAAGGNATYVLDGVPRMRERPIGDLVVGLKQLGADVDCFLGTDCPPVRVNGIGGLPGGKVKLSGSISSQYLSALLMAAPLALGDVEIEIIDKLISIPYVEMTLRLMERFGVKAEHSDSWDRFYIKGGQKYKSPKNAYVEGDASSASYFLAGAAITGGTVTVEGCGTTSLQGDVKFAEVLEMMGAKVTWTETSVTVTGPPREPFGRKHLKAIDVNMNKMPDVAMTLAVVALFADGPTAIRDVASWRVKETERMVAIRTELTKLGASVEEGPDYCIITPPEKLNVTAIDTYDDHRMAMAFSLAACAEVPVTIRDPGCTRKTFPDYFDVLSTFVKN
Consider B2, for which, in data set [2], the Michaelis constant (Km) was 50.6 µM.

B3: Zea mays EPSPS variant G-W at positions 103-107 (EPSPS-TGPW; T103G P107W) (Zea mays; P106W/T102G) (protein)
chain: MAGAEEIVLQPIKEISGTVKLPGSKSLSNRILLLAALSEGTTVVDNLLNSEDVHYMLGALRTLGLSVEADKAAKRAVVVGCGGKFPVEDAKEEVQLFLGNAGGAMRWLTAAVTAAGGNATYVLDGVPRMRERPIGDLVVGLKQLGADVDCFLGTDCPPVRVNGIGGLPGGKVKLSGSISSQYLSALLMAAPLALGDVEIEIIDKLISIPYVEMTLRLMERFGVKAEHSDSWDRFYIKGGQKYKSPKNAYVEGDASSASYFLAGAAITGGTVTVEGCGTTSLQGDVKFAEVLEMMGAKVTWTETSVTVTGPPREPFGRKHLKAIDVNMNKMPDVAMTLAVVALFADGPTAIRDVASWRVKETERMVAIRTELTKLGASVEEGPDYCIITPPEKLNVTAIDTYDDHRMAMAFSLAACAEVPVTIRDPGCTRKTFPDYFDVLSTFVKN
As to B3, the Km in data set [3] amounted to 82.2 µM.

B4: Zea mays EPSPS variant L-T at positions 103-107 (Zea mays; P106T/T102L) (protein)
chain: MAGAEEIVLQPIKEISGTVKLPGSKSLSNRILLLAALSEGTTVVDNLLNSEDVHYMLGALRTLGLSVEADKAAKRAVVVGCGGKFPVEDAKEEVQLFLGNAGLAMRTLTAAVTAAGGNATYVLDGVPRMRERPIGDLVVGLKQLGADVDCFLGTDCPPVRVNGIGGLPGGKVKLSGSISSQYLSALLMAAPLALGDVEIEIIDKLISIPYVEMTLRLMERFGVKAEHSDSWDRFYIKGGQKYKSPKNAYVEGDASSASYFLAGAAITGGTVTVEGCGTTSLQGDVKFAEVLEMMGAKVTWTETSVTVTGPPREPFGRKHLKAIDVNMNKMPDVAMTLAVVALFADGPTAIRDVASWRVKETERMVAIRTELTKLGASVEEGPDYCIITPPEKLNVTAIDTYDDHRMAMAFSLAACAEVPVTIRDPGCTRKTFPDYFDVLSTFVKN
For B4, the Km in data set [4] is 45.8 µM.

B5: Zea mays EPSPS variant S-N at positions 103-107 (Zea mays; P106N/T102S) (protein)
chain: MAGAEEIVLQPIKEISGTVKLPGSKSLSNRILLLAALSEGTTVVDNLLNSEDVHYMLGALRTLGLSVEADKAAKRAVVVGCGGKFPVEDAKEEVQLFLGNAGSAMRNLTAAVTAAGGNATYVLDGVPRMRERPIGDLVVGLKQLGADVDCFLGTDCPPVRVNGIGGLPGGKVKLSGSISSQYLSALLMAAPLALGDVEIEIIDKLISIPYVEMTLRLMERFGVKAEHSDSWDRFYIKGGQKYKSPKNAYVEGDASSASYFLAGAAITGGTVTVEGCGTTSLQGDVKFAEVLEMMGAKVTWTETSVTVTGPPREPFGRKHLKAIDVNMNKMPDVAMTLAVVALFADGPTAIRDVASWRVKETERMVAIRTELTKLGASVEEGPDYCIITPPEKLNVTAIDTYDDHRMAMAFSLAACAEVPVTIRDPGCTRKTFPDYFDVLSTFVKN
On to B5, for which, in data set [5], the Km worked out at 38.1 µM.
